Starred links: 1 amine or outer side, 2 acyl side, 3 side chain; linkers in the order of their positions; H or OH if unused. Non-standard residues stand in square brackets, D forms with d. Groups on a side chain read outwards from the residue. No end group written: not given here. *: point of attachment. C20 diacid = O=C(O)CCCCCCCCCCCCCCCCCCC(=O)*; γGlu = O=C(O)[C@H](CCC(=O)[*:2])N[*:1]; AEEA = NCCOCCOCC(=O)O; Aib = CC(C)(N)C(=O)O
Legend:
[1] = Clinical trial of mazdutide dosing regimen (Example 1, 5 cohorts, overweight or obese subjects); type: in vivo, human; conditions: for least squares mean of percent change from baseline in body weight: sc once weekly, after 12 weeks
Description: The contents in the vial were reconstituted in sterile water for injection to give a clear solution of mazdutide.
• 1. Aged 18-75 years (inclusive), male or female. • 2. For obesity, BMI≥28.0 kg/m^2; for overweight, 24≤BMI<28.0 kg/m^2 with at least one of the following: i, increased appetite, intolerable hunger before meals, and increased food consumption; ii, comorbidity with one or more of pre-diabetes (impaired fasting glucose and/or impaired glucose tolerance), hypertension, dyslipidemia, and fatty liver (within 6 months before the screening); iii, comorbidity with weight-bearing joint pain; iv, obesity-related dyspnea or obstructive sleep apnea syndrome. • 3. Weight change <5% after at least 12 weeks of diet/exercise weight control alone at the time of screening.
• 1. Use of any of the following drugs or treatments before the screening: • 1) previous use of either GLP-1 receptor (GLP-1R) agonists or GLP-1R/GCGR agonists; • 2) use of drugs that may have an effect on body weight within 3 months before the screening, including: systemic steroid hormone therapy (intravenous, oral, or intraarticular administration), metformin, SGLT2 inhibitors, thiazolidinediones (TZD), tricyclic antidepressants, psychotropic agents, or sedatives (e.g., imipramine, amitriptyline, mirtazapine, paroxetine, phenelzine, chlorpromazine, thioridazine, clozapine, olanzapine, valproic acid, valproic acid derivatives, and lithium salts), and the like; • 3) use of Chinese herbal medicines or health care products that may have an effect on body weight within 3 months before the screening; • 4) previous or current use of weight-loss drugs within 3 months before the screening, such as: sibutramine hydrochloride, orlistat, phentermine, phenylpropanolamine, mazindol, phentermine, amfepramone, lorcaserin, compounded phentermine/topiramate, compounded […], etc.; • 5) participation in other clinical trials (reception of the test drug treatment) within 3 months before the screening. • 2. […] Alcohol abuse is defined as: over 21 units for men or over 14 units for women weekly on average, or unwillingness to cease drinking within 24 hours before dosing and throughout the study period (one unit=360 mL of beer, or 150 mL of wine, or 45 mL of distilled spirits); • 21) drug abuse and positivity in a urine test for drugs at the time of screening. • 3. Any one of the laboratory tests meets the following criteria (those of proper reasons at the time of screening can be re-examined within one week, and the reason for retesting should be documented by the investigator): • 1) serum calcitonin ≥15 ng/L at the time of screening; • 2) at the time of screening, alanine aminotransferase ≥2.0×ULN and/or aspartate aminotransferase ≥2.0×ULN and/or total bilirubin ≥1.0×ULN and/or alkaline phosphatase ≥2.0×ULN; • 3) glomerular filtration rate eGFR<60 mL/min/1.73 m^2 at the time of screening, as estimated using the CKD-EPI equation; • 4) abnormal thyroid function (FT3, FT4, or TSH) at the time of screening; • 5) fasting triglyceride >5.64 mmol/L (500 mg/dL) at the time of screening: if the patient is receiving a lipid-regulating treatment, the dose of the treatment must be stable for 30 days before the screening; • 6) blood amylase or lipase >2.0×ULN at the time of screening; • 7) an international normalized ratio (INR) of prothrombin time greater than the upper limit of the normal range at the time of screening. • 4. Heart rate <50 beats/min or >90 beats/min as measured by 12-lead electrocardiogram (ECG) at the time of screening. • 5. Clinically significant abnormality in 12-lead ECG at the time of screening: atrioventricular block degree II or degree III, long QT syndrome or QTcF>450 ms (see Attachment 3 for the formula), PR interval <120 ms or PR interval >220 ms, QRS>120 ms, left or right bundle branch block, pre-excitation syndrome or severe arrhythmia requiring treatment in the absence of cardiac pacemaker. • 6. […]

[2] = 3.0-6.0-9.0 mg QW sc, after 24 consecutive weeks

mazdutide (H[Aib]QGTFTSDYSKYLDEKKAK([AEEA-AEEA-γGlu-C20 diacid])EFVEWLLEGGGPSSG-NH2; N-terminus assumed; SMILES CC(C)C[C@H](NC(=O)[C@H](CC(C)C)NC(=O)[C@H](Cc1c[nH]c2ccccc12)NC(=O)[C@H](CCC(=O)O)NC(=O)[C@@H](NC(=O)[C@H](Cc1ccccc1)NC(=O)[C@H](CCC(=O)O)NC(=O)[C@H](CCCCNC(=O)COCCOCCNC(=O)COCCOCCNC(=O)CC[C@H](NC(=O)CCCCCCCCCCCCCCCCCCC(=O)O)C(=O)O)NC(=O)[C@H](C)NC(=O)[C@H](CCCCN)NC(=O)[C@H](CCCCN)NC(=O)[C@H](CCC(=O)O)NC(=O)[C@H](CC(=O)O)NC(=O)[C@H](CC(C)C)NC(=O)[C@H](Cc1ccc(O)cc1)NC(=O)[C@H](CCCCN)NC(=O)[C@H](CO)NC(=O)[C@H](Cc1ccc(O)cc1)NC(=O)[C@H](CC(=O)O)NC(=O)[C@H](CO)NC(=O)[C@@H](NC(=O)[C@H](Cc1ccccc1)NC(=O)[C@@H](NC(=O)CNC(=O)[C@H](CCC(N)=O)NC(=O)C(C)(C)NC(=O)[C@@H](N)Cc1c[nH]cn1)[C@@H](C)O)[C@@H](C)O)C(C)C)C(=O)N[C@@H](CCC(=O)O)C(=O)NCC(=O)NCC(=O)NCC(=O)N1CCC[C@H]1C(=O)N[C@@H](CO)C(=O)N[C@@H](CO)C(=O)NCC(N)=O)
TEAEs resulting in permanent drug withdrawal ([1]; all 5 cohorts): no TEAEs resulting in permanent drug withdrawal occurred
severe TEAEs ([1]; all 5 cohorts): no severe TEAEs were reported
severe hypoglycemic events ([1]; all 5 cohorts): no severe hypoglycemic events occurred
severity of treatment emergent adverse events (TEAEs) ([1]; all 5 cohorts): Most treatment emergent adverse events (TEAEs) were mild
treatment emergent serious adverse events (TESAEs) ([1]; all 5 cohorts): no treatment emergent serious adverse events (TESAEs) occurred
least squares mean of percent change from baseline in body weight ([1]; cohort 2: 1.5 mg 4 wk + 3.0 mg 4 wk + 4.5 mg 4 wk): −6.40%
least squares mean of percent change from baseline in body weight ([1]; cohort 3: 2.0 mg 4 wk + 4.0 mg 4 wk + 6.0 mg 4 wk): −6.05%
least squares mean of percent change from baseline in body weight ([1]; cohort 5: 3.0 mg 4 wk + 6.0 mg 4 wk + 9.0 mg 4 wk): −11.7%
weight loss effect at week 12 in indirect comparison with similar drugs ([1]; cohort 5 regimen vs 2.4 mg Semaglutide and 10 mg or 15 mg Tirzepatide regimens, FIG. 6): particularly pronounced weight loss effect
improvement of blood pressure, blood lipid and serum uric acid levels ([1]; different doses in 5 cohorts, FIGS. 3-5 for cohorts 4 and 5): good beneficial effects
subjects with body weight reduced by at least 5% from baseline [2]: 81.7%
subjects with body weight reduced by at least 10% from baseline [2]: 65.0%
subjects with body weight reduced by at least 15% from baseline [2]: 31.7%
subjects with body weight reduced by at least 20% from baseline [2]: 21.7%
dropout rate of the treatment group (human, in vivo): lower than that of the placebo group overall
early termination of treatment due to adverse events (human, in vivo): no subject in the treatment group has terminated treatment in advance due to adverse events
most common treatment emergent adverse events (human, in vivo): gastrointestinal-related adverse events
serious adverse events (human, in vivo): no serious adverse event has occurred

From patent US20250296973A1, “TREATMENT METHOD USING MAZDUTIDE” (Innovent Biologics (Suzhou) Co., Ltd., priority 2022, published 2025)
